Molecular target: the molecule itself
Test: SEC + other: SDS-PAGE

B1: dLanYFP (other)
chain: MSLPATHELHIFGSFNGVDFDMVGRGTGNPNDGYEELNLKSTKGALQFSPWILVPQIGYGFHQYLPFPDGMSPFQAAMKDGSGYQVHRTMQFEDGASLTSNYRYTYEGSHIKGEFQVKGTGFPADGPVMTNSLTAADWCVTKMLYPNDKTIISTFDWTYTTGSGKRYQSTVRTTYTFAKPMAANILKNQPMFVFRKTELKHSKTELNFKEWQKAFTDVM
  stoichiometry N: 2

From publication doi:10.1101/2021.04.27.441613 (bioRxiv, 2021)
